According to US8030025B2, “Antibodies directed to angiopoietin-1 and angiopoietin-2 and uses thereof” (Amgen Inc., dated 2011):
Numbering of substitutions follows the chain as printed.

Assays:
[1] = biological target: biotinylated human angiopoietin 1 (human, UniProt Q15389, biotin); test: HTRF neutralization; biotin-hAng1 vs huTie-2-Fc-APC
[2] = biological target: biotinylated human angiopoietin 2 (human, UniProt O15123, biotin); test: HTRF neutralization; biotin-hAng2 vs huTie-2-Fc-APC
Cyno Ang1 = Cyno Ang1 (cynomolgus monkey, UniProt A0A2K5VW43); test: neutralization ELISA; coated angiopoietin vs Tie2-Fc
Murine Ang1 = Murine Ang1 (mouse, UniProt O08538); test: as above
Human Ang1 = Human Ang1 (human, UniProt Q15389); test: as above
Rabbit Ang1 = Rabbit Ang1 (rabbit, UniProt G1SK98); test: as above
Cyno Ang2 = Cyno Ang2 (cynomolgus monkey, UniProt A0A2K5VNX6); test: as above
Human Ang2 = Human Ang2 (human, UniProt O15123); test: as above
Murine Ang2 = Murine Ang2 (mouse, UniProt O35608); test: as above
Rabbit Ang2 = Rabbit Ang2 (rabbit, UniProt G1T9B3); test: as above

B1: H5L7 (antibody, V domains shown)
VH: EVQLVQSGGGVVQPGRSLRLSCAASGFTFSSYGMHWVRQAPGKGLEWVSYISSSGSTIYYADSVKGRFTISRDNAKNSLYLQMNSLRAEDTAVYYCARDLLDYDIWTGYGYWGQGTLVTVSS
VL: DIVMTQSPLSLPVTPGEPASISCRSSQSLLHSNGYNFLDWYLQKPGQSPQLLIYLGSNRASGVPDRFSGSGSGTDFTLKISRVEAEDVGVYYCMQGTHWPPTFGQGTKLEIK
B1 gave an IC50 [1] of 0.07 nM, an IC90 [1] of 0.42 nM and an IC50 [2] of 0.07 nM. The IC90 [2] was 0.23 nM.

B2: H4L12 (antibody, V domains shown)
VH: B1 VH with I105L, W106L
VL: not shown
In the case of B2, the IC50 [1] is reported as 0.63 nM, the IC90 [1] is reported as 8.7 nM and the IC50 [2] is reported as 0.06 nM. It also gave an IC90 [2] of 0.21 nM.

B3: H4L7 (antibody, V domains shown)
VH: B1 VH with I105L, W106L
VL: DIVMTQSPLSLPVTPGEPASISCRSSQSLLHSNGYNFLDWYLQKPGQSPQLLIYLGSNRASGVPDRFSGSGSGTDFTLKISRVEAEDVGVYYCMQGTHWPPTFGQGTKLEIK
B3 was tested, and the IC50 [1] was 0.23 nM, the IC90 [1] was 2.8 nM and the IC50 [2] was 0.06 nM. It also gave an IC90 [2] of 0.22 nM.

B4: H5L12 (antibody, V domains shown)
VH: B1 VH
VL: not shown
B4 showed an IC50 [2] of 0.07 nM.

B5: H6L7 (antibody, V domains shown)
VH: B1 VH with W106Y
VL: not shown
B5 gave an IC50 [1] of 0.06 nM, an IC90 [1] of 0.49 nM and an IC50 [2] of 0.06 nM. For the same binder, the IC90 [2] was 0.19 nM.

B6: H5L6 (antibody, V domains shown)
VH: B1 VH
VL: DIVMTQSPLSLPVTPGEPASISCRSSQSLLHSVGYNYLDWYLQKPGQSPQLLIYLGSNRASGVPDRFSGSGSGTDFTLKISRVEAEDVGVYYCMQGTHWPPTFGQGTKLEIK
Binder B6 has an IC50 [1] of 0.32 nM, an IC90 [1] of 3.6 nM and an IC50 [2] of 0.07 nM. For the same binder, the IC90 [2] was 0.23 nM.

B7: H5L8 (antibody, V domains shown)
VH: B1 VH
VL: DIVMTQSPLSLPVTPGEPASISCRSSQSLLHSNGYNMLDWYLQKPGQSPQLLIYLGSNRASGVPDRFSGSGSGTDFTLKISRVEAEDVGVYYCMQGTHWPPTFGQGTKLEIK
In the case of B7, the IC50 [1] is reported as 0.37 nM, the IC90 [1] is reported as 3.6 nM and the IC50 [2] is reported as 0.07 nM. It also gave an IC90 [2] of 0.21 nM.

B8: H4L11 (antibody, V domains shown)
VH: B1 VH with I105L, W106L
VL: not shown
B8 showed an IC50 [1] of 7.3 nM, an IC90 [1] of 107 nM and an IC50 [2] of 0.05 nM. The IC90 [2] was 0.17 nM.

B9: H10L7 (antibody, V domains shown)
VH: B1 VH with W106L, Y111L
VL: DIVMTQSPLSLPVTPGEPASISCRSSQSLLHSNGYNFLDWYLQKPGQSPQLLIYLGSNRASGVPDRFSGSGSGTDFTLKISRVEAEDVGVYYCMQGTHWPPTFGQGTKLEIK
With B9 the IC50 [1] was 0.15 nM, the IC90 [1] was 2.2 nM and the IC50 [2] was 0.06 nM. The IC90 [2] was 0.19 nM.

B10: 536 LC1 (antibody, V domains shown)
VH: B1 VH with W106L
VL: not shown
B10 showed an IC50 (Cyno Ang1) of 531 nM, an IC50 (Murine Ang1) of 305 nM and an IC50 (Human Ang1) of 515 nM. It also gave an IC50 (Rabbit Ang1) of 502 nM, an IC50 (Cyno Ang2) of 0.19 nM and an IC50 (Human Ang2) of 0.27 nM. For the same binder, the IC50 (Murine Ang2) was 0.14 nM and the IC50 (Rabbit Ang2) was 0.2 nM.

B11: H5L1 (antibody, V domains shown)
VH: B1 VH
VL: not shown
B11 showed an IC50 [2] of 0.06 nM.

B12: H5L11 (antibody, V domains shown)
VH: B1 VH
VL: not shown
With B12 the IC50 [1] was 0.97 nM, the IC90 [1] was 18 nM and the IC50 [2] was 0.08 nM. The IC90 [2] was 0.25 nM.

B13: H6L7 (IgG2) (antibody, V domains shown)
VH: B1 VH with W106Y
VL: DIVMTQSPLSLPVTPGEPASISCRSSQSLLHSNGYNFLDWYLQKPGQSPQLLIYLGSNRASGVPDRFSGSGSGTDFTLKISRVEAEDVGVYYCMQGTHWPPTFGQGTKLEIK
B13 gave an IC50 (Cyno Ang1) of 0.19 nM, an IC50 (Murine Ang1) of 0.12 nM and an IC50 (Human Ang1) of 0.12 nM. It also gave an IC50 (Rabbit Ang1) of 0.18 nM, an IC50 (Cyno Ang2) of 0.19 nM and an IC50 (Human Ang2) of 0.22 nM. For the same binder, the IC50 (Murine Ang2) was 0.13 nM and the IC50 (Rabbit Ang2) was 0.15 nM.

B14: H5L9 (antibody, V domains shown)
VH: B1 VH
VL: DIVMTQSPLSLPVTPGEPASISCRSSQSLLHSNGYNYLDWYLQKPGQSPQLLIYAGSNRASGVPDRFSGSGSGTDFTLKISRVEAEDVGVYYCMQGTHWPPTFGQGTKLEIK
With B14 the IC50 [1] was 18 nM, the IC90 [1] was 181 nM and the IC50 [2] was 0.19 nM. The IC90 [2] was 1.57 nM.

B15: H6L8 (antibody, V domains shown)
VH: B1 VH with W106Y
VL: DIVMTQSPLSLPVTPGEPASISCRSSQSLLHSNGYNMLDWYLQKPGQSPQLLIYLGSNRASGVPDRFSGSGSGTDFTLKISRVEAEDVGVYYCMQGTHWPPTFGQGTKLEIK
Work on B15 yielded an IC50 [1] of 0.57 nM, an IC90 [1] of 7.7 nM and an IC50 [2] of 0.05 nM. It also gave an IC90 [2] of 0.19 nM.

B16: H4L4 (IgG2) (antibody, V domains shown)
VH: B1 VH with I105L, W106L
VL: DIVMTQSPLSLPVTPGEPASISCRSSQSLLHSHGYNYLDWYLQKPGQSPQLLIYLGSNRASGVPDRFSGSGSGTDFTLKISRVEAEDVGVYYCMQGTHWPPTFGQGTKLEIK
Work on B16 yielded an IC50 (Cyno Ang1) of 4 nM, an IC50 (Murine Ang1) of 3.3 nM and an IC50 (Human Ang1) of 3.2 nM. The IC50 (Rabbit Ang1) was 2.8 nM, the IC50 (Cyno Ang2) was 0.24 nM and the IC50 (Human Ang2) was 0.22 nM. For the same binder, the IC50 (Murine Ang2) was 0.15 nM and the IC50 (Rabbit Ang2) was 0.15 nM.

B17: H4L11 (IgG2) (antibody, V domains shown)
VH: B1 VH with I105L, W106L
VL: not shown
Work on B17 yielded an IC50 (Murine Ang1) of 7.7 nM, an IC50 (Human Ang1) of 17 nM and an IC50 (Rabbit Ang1) of 16 nM. The IC50 (Cyno Ang2) was 0.16 nM, the IC50 (Human Ang2) was 0.21 nM and the IC50 (Murine Ang2) was 0.12 nM. It also gave an IC50 (Rabbit Ang2) of 0.12 nM.

B18: H6L6 (antibody, V domains shown)
VH: B1 VH with W106Y
VL: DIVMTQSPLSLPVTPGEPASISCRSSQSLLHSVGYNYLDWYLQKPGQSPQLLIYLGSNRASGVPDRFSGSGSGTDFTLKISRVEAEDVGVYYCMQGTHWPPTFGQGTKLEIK
Binder B18 has an IC50 [1] of 0.66 nM, an IC90 [1] of 10 nM and an IC50 [2] of 0.06 nM. The IC90 [2] was 0.2 nM.

B19: H4L2 (antibody, V domains shown)
VH: B1 VH with I105L, W106L
VL: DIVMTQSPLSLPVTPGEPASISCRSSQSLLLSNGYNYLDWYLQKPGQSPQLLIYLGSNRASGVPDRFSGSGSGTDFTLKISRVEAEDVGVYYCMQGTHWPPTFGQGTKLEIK
B19 gave an IC50 [1] of 0.66 nM, an IC90 [1] of 6.8 nM and an IC50 [2] of 0.06 nM. For the same binder, the IC90 [2] was 0.19 nM.

B20: H3L7 (antibody, V domains shown)
VH: B1 VH with Y59Q, W106L
VL: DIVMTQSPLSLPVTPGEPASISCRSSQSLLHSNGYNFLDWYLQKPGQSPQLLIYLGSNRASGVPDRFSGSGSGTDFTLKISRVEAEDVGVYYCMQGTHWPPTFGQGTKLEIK
Work on B20 yielded an IC50 [1] of 0.58 nM, an IC90 [1] of 7.1 nM and an IC50 [2] of 0.06 nM. The IC90 [2] was 0.23 nM.

B21: H2L7 (antibody, V domains shown)
VH: B1 VH with Y59E, W106L
VL: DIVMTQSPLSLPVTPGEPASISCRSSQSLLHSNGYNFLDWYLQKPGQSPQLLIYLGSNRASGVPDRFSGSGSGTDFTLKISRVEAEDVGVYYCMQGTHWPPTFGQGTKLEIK
Binder B21 has an IC50 [1] of 0.33 nM, an IC90 [1] of 3.6 nM and an IC50 [2] of 0.06 nM. For the same binder, the IC90 [2] was 0.2 nM.

B22: H4L4 (antibody, V domains shown)
VH: B1 VH with I105L, W106L
VL: not shown
B22 showed an IC50 [1] of 0.87 nM, an IC90 [1] of 8.2 nM and an IC50 [2] of 0.06 nM. It also gave an IC90 [2] of 0.16 nM.

B23: H11L7 (antibody, V domains shown)
VH: B1 VH with W106L, Y111M
VL: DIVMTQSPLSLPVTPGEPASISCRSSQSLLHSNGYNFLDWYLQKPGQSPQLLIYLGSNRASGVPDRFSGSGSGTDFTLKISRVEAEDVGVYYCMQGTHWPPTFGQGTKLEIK
B23 gave an IC50 [1] of 0.15 nM, an IC90 [1] of 1.2 nM and an IC50 [2] of 0.06 nM. It also gave an IC90 [2] of 0.2 nM.

B24: H5L4 (antibody, V domains shown)
VH: B1 VH
VL: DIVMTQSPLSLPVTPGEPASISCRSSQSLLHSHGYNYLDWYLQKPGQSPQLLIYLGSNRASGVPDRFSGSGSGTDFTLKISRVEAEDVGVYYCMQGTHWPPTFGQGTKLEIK
Binder B24 has an IC50 [1] of 0.6 nM, an IC90 [1] of 11 nM and an IC50 [2] of 0.07 nM. The IC90 [2] was 0.21 nM.

B25: H4L13 (antibody, V domains shown)
VH: B1 VH with I105L, W106L
VL: not shown
B25 showed an IC50 [1] of 0.15 nM, an IC90 [1] of 1.6 nM and an IC50 [2] of 0.06 nM. It also gave an IC90 [2] of 0.19 nM.

B26: H4L6 (antibody, V domains shown)
VH: B1 VH with I105L, W106L
VL: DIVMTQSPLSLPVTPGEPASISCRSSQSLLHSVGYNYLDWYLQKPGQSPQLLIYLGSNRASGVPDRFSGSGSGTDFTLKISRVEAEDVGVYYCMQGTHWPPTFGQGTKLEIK
With B26 the IC50 [1] was 0.74 nM, the IC90 [1] was 15 nM and the IC50 [2] was 0.06 nM. It also gave an IC90 [2] of 0.2 nM.
